Experimental data reported in the supplement of paper PMC7125110.
± gives the standard error. For some assays here: This sample holds only a part of the variants without activity.

B1: glmS ribozyme (parent)
chain: AUAAAAGCGCCAGAACUACAGAAAUGUAGUUGACGAGGAGGAGGUUUAUCGAAUUUUCGGCGGAUGCCUCCAAA

Assays:
Conditions in all cases: with glucosamine-6-phosphate
glucosamine-6-phosphate [1] = variants of: B1; assay: self-cleavage kobs at 40 uM GlcN6P; higher = faster cleavage; RNA array
In short: (§1)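 Glucosamine-6-phosphate, from 40 μM to 10 mM in HEPES/KCl/Mg(OAc)2 buffer, was flowed over sequenced MiSeq chips carrying barcoded ribozyme variants transcribed in situ by E. coli RNA polymerase. A hybridised Cy3 probe tracked the variants at 37 °C as tiles were imaged over ~14 h. kobs, kcat and KM were obtained by fitting normalised per-tile medians to exponential decays and then applying weighted Michaelis–Menten fits across concentrations.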

glucosamine-6-phosphate [2] = variants of: B1; assay: self-cleavage kobs at 160 uM GlcN6P; higher = faster cleavage; RNA array
In short: as §1

glucosamine-6-phosphate [3] = variants of: B1; assay: self-cleavage kobs at 640 uM GlcN6P; higher = faster cleavage; RNA array
In short: as §1

glucosamine-6-phosphate [4] = variants of: B1; assay: self-cleavage kobs at 2500 uM GlcN6P; higher = faster cleavage; RNA array
In short: as §1

glucosamine-6-phosphate [5] = variants of: B1; assay: self-cleavage kobs at 10000 uM GlcN6P; higher = faster cleavage; RNA array
In short: as §1

glucosamine-6-phosphate [6] = variants of: B1; assay: kcat; higher = faster cleavage; RNA array
In short: as §1

glucosamine-6-phosphate [7] = variants of: B1; assay: KM; higher = weaker cofactor use; RNA array
In short: as §1

| Variant | self-cleavage kobs at 40 uM GlcN6P (glucosamine-6-phosphate [1]) [s⁻¹] | self-cleavage kobs at 160 uM GlcN6P (glucosamine-6-phosphate [2]) [s⁻¹] | self-cleavage kobs at 640 uM GlcN6P (glucosamine-6-phosphate [3]) [s⁻¹] | self-cleavage kobs at 2500 uM GlcN6P (glucosamine-6-phosphate [4]) [s⁻¹] | self-cleavage kobs at 10000 uM GlcN6P (glucosamine-6-phosphate [5]) [s⁻¹] | kcat (glucosamine-6-phosphate [6]) [s⁻¹] | KM (glucosamine-6-phosphate [7]) [mM] |
| --- | --- | --- | --- | --- | --- | --- | --- |
| A6G C71A | < 1e-05 | < 1e-05 | – | – | – | – | – |
| C8A U31A | < 1e-05 | – | – | – | – | – | – |
| G7C C16A | < 1e-05 | < 1e-05 | < 1e-05 | < 1e-05 | < 1e-05 | – | – |
| A6G C16G C67G | < 1e-05 | – | – | – | – | – | – |
| A6U G13C | < 1e-05 | – | < 1e-05 | < 1e-05 | – | – | – |
| C67G U69A | – | – | – | – | – | 1.14e-05 ± 5.3e-06 | – |
| A6G A14G G29C G38A A39G G40A A42U U54C U56A G60C | < 1e-05 | – | – | – | – | – | – |
| G7U A36G | < 1e-05 | – | < 1e-05 | < 1e-05 | < 1e-05 | – | – |
| C8A G59C | < 1e-05 | – | < 1e-05 | < 1e-05 | – | – | – |
| U69G C71G | – | – | 9.05e-05 ± 1.6e-05 | 3.23e-05 ± 1.5e-05 | – | 5.4e-05 ± 2.4e-05 | – |
| A6U G29A G63U | < 1e-05 | – | – | – | – | – | – |
| G44U U56C | – | – | – | – | – | – | 4.89 ± 1.5 |
| A6U C11G | – | – | – | – | – | – | 1.37 ± 0.46 |
| A6G G7C | < 1e-05 | < 1e-05 | – | < 1e-05 | < 1e-05 | – | – |
| A6G G13U | < 1e-05 | < 1e-05 | < 1e-05 | – | – | – | – |
| A6G G60A U65G | < 1e-05 | – | – | – | < 1e-05 | – | – |
| C8A G13A | < 1e-05 | < 1e-05 | < 1e-05 | < 1e-05 | < 1e-05 | – | – |
| A6C G29C A53U | < 1e-05 | < 1e-05 | – | – | – | – | – |
| C8A A39C | < 1e-05 | < 1e-05 | < 1e-05 | – | < 1e-05 | – | – |
| G7A U47C | < 1e-05 | < 1e-05 | < 1e-05 | – | – | – | – |
| A6C G44C | < 1e-05 | < 1e-05 | < 1e-05 | – | < 1e-05 | – | – |
| A6C G7U | < 1e-05 | < 1e-05 | < 1e-05 | < 1e-05 | < 1e-05 | – | – |
| C67U U69A | < 1e-05 | – | 5e-05 ± 1.8e-05 | 4.79e-05 ± 1.1e-05 | 3.56e-05 ± 1.5e-05 | 4.62e-05 ± 6.3e-06 | – |
| A6U U49C | < 1e-05 | < 1e-05 | – | < 1e-05 | < 1e-05 | – | – |
